Measurements taken from patent US20210063414A1, “METHODS FOR PREVENTING AND/OR TREATING BONE LOSS CONDITIONS BY MODULATING IRISIN” (Dana-Farber Cancer Institute, Inc., priority 2018, published 2021).
Values joined by “and” are separate entries in the source; they are usually repeats but may differ in a detail not shown here. Equal entries are not always repeated.

Tests used:
[1] = system: epididymal fat (eWAT); assay: Irisin injection in mice: thermogenic and creatine cycle gene mRNA in epididymal fat; assay type: in vivo; conditions: irisin injections 6 days
Experimental: Eight week old mice were injected with indicated dose of irisin or 1 mg/kg CL316243 for 6 days. Epididymal fats (eWAT) were collected and indicated genes mRNA level was analyzed by qPCR. GATM is the first and rate-limiting step of creatine synthesis (Sandell et al. (2003) Proc. Natl. Acad. Sci. U.S.A. 100:4622-4627).
Certain materials and methods were used to generate the results described herein. For example, the data shown in FIG. 1A resulted from MLO-Y4 (an osteocyte-like cell line) cells treated with the indicated concentration of irisin and hydrogen peroxide for 4 hours. Cells were stained with Hoechst 33342 (ThermoFisher Scientific, catalog number H3570) and Eth-D1 (ThermoFisher Scientific, catalog number E1169) and analyzed to determine the percentage of cell death using ImageJ. […] Co-precipitated irisin was analyzed by immunoblot analysis against flag tag (Sigma Aldrich, catalog number A8592). The data shown in FIGS. 5A and 5B were generated from MLO-Y4 cells treated and analyzed as in the experiments used to generate the data shown in FIG. 2D, except that pre-treatment of 100 nM RGDS (FIG. 5A) or echistatin (R & D Systems Inc., catalog number 3202/100U) (FIG. 5B) for 10 minutes was performed before irisin treatment. […] Sclerostin mRNA level was analyzed by qPCR (FIG. 7A). […]

[2] = system: MLO-Y4 cells; assay: Anti-apoptosis assay: H2O2-induced cell death of MLO-Y4 osteocytes; assay type: cell-based
Experimental: Cells were stained with Hoechst 33342 and Eth-D1, and analyzed to determine the percentage of cell death. *: p<0.05, ***: p<0.001 vs 0.3 mM H2O2 treated condition. […] MLO-Y4 cells were seeded and incubated until 60% cell density. The cells were incubated with Freestyle293 medium for 4 hours and were treated with indicated concentrations of irisin for 16 hours. Sclerostin mRNA level was analyzed by qRT-PCR. Cyclophilin was used as a control house-keeping gene.
Certain materials and methods were used to generate the results described herein. […] Cells were stained with Hoechst 33342 (ThermoFisher Scientific, catalog number H3570) and Eth-D1 (ThermoFisher Scientific, catalog number E1169) and analyzed to determine the percentage of cell death using ImageJ. […] Co-precipitated irisin was analyzed by immunoblot analysis against flag tag (Sigma Aldrich, catalog number A8592). The data shown in FIGS. 5A and 5B were generated from MLO-Y4 cells treated and analyzed as in the experiments used to generate the data shown in FIG. 2D, except that pre-treatment of 100 nM RGDS (FIG. 5A) or echistatin (R & D Systems Inc., catalog number 3202/100U) (FIG. 5B) for 10 minutes was performed before irisin treatment. […] Sclerostin mRNA level was analyzed by qPCR (FIG. 7A). […] Epididymal fats were collected, RNAs were extracted from the tissues, and mRNA levels of the indicated genes were analyzed by qPCR. […]

B1: irisin: secreted cleaved form of FNDC5; recombinant human/mouse irisin with C-terminal his tag produced in HEK293 cells (protein)
chain: DSPSAPVNVTVRHLKANSAVVSWDVLEDEVVIGFAISQQKKDVRMLRFIQEVNTTTRSCALWDLEEDTEYIVHVQAISIQGQSPASEPVLFKTPREAEKMASKNKDEVTMKE
modifications: left off: small tags and cut ends
notes: secreted cleaved form of FNDC5; recombinant human/mouse irisin with C-terminal his tag produced in HEK293 cells
expression of futile creatine cycle genes (GATM, CKMT2, CKB) [1]: also increased expression | mRNAs of classical thermogenic pathway genes (UCP1, DIO 2) [1]: increased expression | concentration as low as which irisin prevented osteocyte cell death ([2]; MLO-Y4, 0.3 mM H2O2, dose dependent): 1 ng/ml and 70 pM | concentrations at which irisin reduced hydrogen peroxide-induced apoptosis ([2]; MLO-Y4, hydrogen peroxide): 1 to 500 ng/mL
